Columns and labels:
[1] = target: T1, Mouse PD-L1, full length, on transfected cells (W315-293F.mPro1.C1) (mouse, UniProt Q9EP73 19-290); assay: FACS on mouse PD-L1 expressing 293F cells
T1 construct: whole, on cells; also called cell surface mouse PD-L1
Procedure: (§1) The binding of testing antibodies to cynomolgus monkey or mouse PD-L1 was determined by FACS. Various concentrations of testing antibody were incubated with cynomolgus PD-L1-expressing W315-293F.cynoPro1.2A2 cells or mouse PD-L1 expressing W315-293F.mPro1.C1 cells at 4° C. for 1 hour, and then the binding of antibodies to the surface of the cells was detected by PE-labeled goat anti-human IgG-Fc antibody (Jackson Immuno Research). MFI of the cells was measured by a flow cytometer and analyzed by FlowJo.

Human TGF-β3 [2] = target: T2, Human TGF-β3 (human, UniProt P10600 301-412); assay: ELISA, plate coated with human TGF-β3
T2 construct: also called TGF433 [sic]
T2 sequence (looked up): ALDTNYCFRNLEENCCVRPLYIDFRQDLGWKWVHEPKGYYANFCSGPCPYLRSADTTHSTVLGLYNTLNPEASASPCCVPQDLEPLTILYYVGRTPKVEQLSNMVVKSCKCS
Procedure: (§2) The binding of antibodies to human TGF-β1, TGF-β2 and TGF-β3 was determined by ELISA. Plates were coated with human TGF-β1, TGF-β2 or TGF-β3 overnight at 4° C., respectively. After blocking and washing, various concentrations of testing antibodies were added to the plates and incubated at room temperature for 1 hour. The plates were then washed and incubated with HRP-labeled goat anti-human IgG antibody (Bethyl) for 1 hour. After washing, TMB substrate was added and the color reaction was stopped by 2M HCl. The absorbance at 450 nm and 540 nm was read using a microplate reader (SpectraMax M5e).

[3] = target: T3, Mouse PD-L1 (soluble SPR analyte) (mouse, UniProt Q9EP73 19-239, limits assumed); assay: SPR (Biacore 8K), antibody captured by anti-human IgG Fc, mouse PD-L1 as analyte, 0-300 s curves fitted
T3 construct: 40 kDa used for molarity
Procedure: (§3) Antibody was captured on an anti-human IgG Fc antibody immobilized CM5 sensor chip (GE). Human or cyno PD-L1 at different concentrations were injected over the sensor chip at a flow rate of 30 μL/min for an association phase of 180 s, followed by 3600 s dissociation. Mouse PD-L1 at different concentrations were injected over the sensor chip at a flow rate of 30 μL/min for an association phase of 120 s, followed by 1200 s dissociation. The chip was regenerated by 10 mM glycine (pH 1.5) after each binding cycle.
(§4) The sensorgrams of blank surface and buffer channel were subtracted from the test sensorgrams. […] The experimental data was fitted by 1:1 model using Langmiur analysis. Molecular weight of 40 kDa was used to calculate the molar concentration of human, mouse and cyno PD-L1.

[4] = target: T4, Cynomolgus monkey (cyno) PD-L1 ECD antigen His tagged (cynomolgus monkey, UniProt G7PSE7 19-238); assay: SPR (Biacore 8K), antibody captured by anti-human IgG Fc, PD-L1 as analyte, 1:1 model
T4 construct: also called Cyno PD-L1 (SPR analyte)
Procedure: as §3, §4

[5] = target: T5, Human PD-L1 extracellular domain (ECD) antigen His tagged (human, UniProt Q9NZQ7 19-238); assay: as above
T5 construct: extracellular domain; The SPR and the PD-L1-coated ELISA say only 'human PD-L1'; also called human PD-L1 ECD protein; Human PD-L1 (SPR analyte); not shown: His tag
Procedure: as §3, §4

Human TGF-β2 [6] = target: T6, Human TGF-β2 (human, UniProt P61812 303-414); assay: ELISA, antibody immobilized, soluble TGF-β2 titrated; ELISA with antibody immobilized and soluble TGF-β2 titrated: binds
T6 sequence (looked up): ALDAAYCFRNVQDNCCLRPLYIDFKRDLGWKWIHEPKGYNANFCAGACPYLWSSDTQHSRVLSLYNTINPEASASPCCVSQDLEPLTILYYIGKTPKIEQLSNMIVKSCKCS
Procedure: The binding of antibody to human TGF-β2 was also determined by ELISA immobilized with testing antibodies. After blocking and washing, various concentrations of TGF-β2 were added to the plates and incubated at room temperature for 1 hour. The plates were then washed and incubated with biotinylated TGF-β2 detection antibody (R&D, DY240) for 1 hour, followed by streptavidin-HRP for 1 hour. After washing, TMB substrate was added and the color reaction was stopped by 2M HCl. The absorbance at 450 nm and 540 nm was read using a microplate reader (SpectraMax M5e).

[7] = target: T7, Human PD-L1, full length, on transfected cells (W315-CHO-K1.hProl.C11) (human, UniProt Q9NZQ7 19-290); assay: FACS on human PD-L1 expressing CHO-K1 cells
T7 construct: whole, on cells; Also used here for the human PD-L1 on the artificial APC (CHO-K1 with human PD-L1 and OKT3 scFv) of the reporter gene assay; also called hPD-L1; cell surface human PD-L1
Procedure: (§5) Various concentrations of testing antibodies were incubated with hPD-L1 expressing W315-CHO-K1.hProl.C11 cells at 4° C. for 1 hour. After washing, the cells were incubated with PE-labeled goat anti-human IgG-Fc antibody (Jackson Immuno Research). Finally, the MFI of the cells was measured by a flow cytometer and analyzed by FlowJo.

Human TGF-β3 [8] = target: T2, Human TGF-β3; assay: ELISA, plate coated with human TGF-β3, antibody titrated, HRP goat anti-human IgG
Procedure: as §2

Human TGF-β1 [9] = target: T8, Human TGF-β1 (human, UniProt P01137 279-390); assay: cell-based or functional assay
[10] = target: T7, Human PD-L1, full length, on …; assay: cell-based or functional assay
[11] = target: T9, Cynomolgus monkey PD-L1, full length, on transfected cells (W315-293F.cynoPro1.2A2) (cynomolgus monkey, UniProt G7PSE7 19-290); assay: FACS on cyno PD-L1 expressing 293F cells
T9 construct: also called cyno PD-L1; cell surface cyno PD-L1
Procedure: as §1

Human TGF-β2 [12] = target: T6, Human TGF-β2; assay: SPR (Biacore 8K), antibody immobilized on CM5, TGFβ as analyte, 1:1 model; SPR with WT1122 as ligand on the chip and soluble TGF-β2 as analyte: binds
Procedure: (§6) Antibody binding affinity to TGFβ was detected by SPR assay using Biacore 8K. Each antibody was immobilized on CM5 sensor chip (GE). Human TGFβ1 and TGFβ3 at different concentrations were injected over the sensor chip at a flow rate of 50 uL/min for an association phase of 240 s, followed by 1200 s dissociation. Human TGFβ2 at different concentrations were injected over the sensor chip at a flow rate of 50 uL/min for an association phase of 240 s, followed by 300 s dissociation. The chip was regenerated by 10 mM glycine (pH 1.5) after each binding cycle.
(§7) The sensorgrams of blank surface and buffer channel were subtracted from the test sensorgrams. The experimental data was fitted by 1:1 model using Langmiur analysis. Molecular weight of 22 kDa, 24 kDa and 22 kDa were used to calculate the molar concentration of analyte TGFβ1, TGFβ2 and TGFβ3, respectively. The results are shown in […]

[13] = target: T7, Human PD-L1, full length, on …; assay: competition FACS: blocks mFc tagged human PD-1 binding to human PD-L1 expressing cells
Procedure: MFI of the cells was measured by a flow cytometer and analyzed by FlowJo.

Human TGF-β1 [14] = target: T8, Human TGF-β1; assay: dual binding ELISA coating with TGF-β1, WT1122 after 0 to 14 days in human serum at 37 °C, detected with biotinylated human PD-L1 ECD and streptavidin-HRP [upper panel]
Procedure: After blocking and washing, various concentrations of testing antibodies were added to the plates and incubated at room temperature for 1 hour. […] After washing, TMB substrate was added and the color reaction was stopped by 2M HCl. The absorbance at 450 nm and 540 nm was read using a microplate reader (SpectraMax M5e).
(§8) The samples were quickly thawed immediately prior to the stability test.

Human TGF-β1 [15] = target: T8, Human TGF-β1; assay: ELISA, plate coated with human TGF-β1, antibody titrated, HRP goat anti-human IgG
Procedure: as §2

Human TGF-β3 [16] = target: T2, Human TGF-β3; assay: SPR (Biacore 8K), antibody immobilized on CM5, TGFβ as analyte, 1:1 model
Procedure: as §6, §7

Human TGF-β1 [17] = target: T8, Human TGF-β1; assay: as above
Procedure: as §6, §7

Human TGF-β1 [18] = target: T8, Human TGF-β1; assay: ELISA, plate coated with human TGF-β1
Procedure: as §2

[19] = target: T7, Human PD-L1, full length, on …; assay: PD-L1 FACS on human PD-L1 expressing cells, WT1122 after 0 to 14 days in human serum at 37 °C [lower panel]
Procedure: as §5, §8

Human FcRn = Human FcRn (human, UniProt P55899 24-297; P61769 21-119); assay: SPR (Biacore 8K), antibody immobilized on CM5, human FcRn as analyte, steady-state model, pH 6.0
Procedure: Each antibody was immobilized on CM5 sensor chip (GE). […] The chip was then regenerated by 10 mM glycine (pH 1.5) after each binding cycle. The sensorgrams of blank surface and buffer channel were subtracted from the test sensorgrams.

T5 sequence (Q9NZQ7 19-238): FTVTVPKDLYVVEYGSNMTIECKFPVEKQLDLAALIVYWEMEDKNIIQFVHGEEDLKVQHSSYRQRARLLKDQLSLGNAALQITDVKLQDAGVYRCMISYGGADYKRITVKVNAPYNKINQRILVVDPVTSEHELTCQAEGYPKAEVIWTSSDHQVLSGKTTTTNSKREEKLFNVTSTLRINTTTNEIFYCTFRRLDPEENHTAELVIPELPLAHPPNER
T8 sequence (P01137 279-390 limits assumed): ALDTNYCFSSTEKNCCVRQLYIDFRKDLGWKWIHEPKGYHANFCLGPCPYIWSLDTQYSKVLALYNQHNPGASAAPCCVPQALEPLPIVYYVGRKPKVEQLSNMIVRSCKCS
T7 sequence (Q9NZQ7 19-290): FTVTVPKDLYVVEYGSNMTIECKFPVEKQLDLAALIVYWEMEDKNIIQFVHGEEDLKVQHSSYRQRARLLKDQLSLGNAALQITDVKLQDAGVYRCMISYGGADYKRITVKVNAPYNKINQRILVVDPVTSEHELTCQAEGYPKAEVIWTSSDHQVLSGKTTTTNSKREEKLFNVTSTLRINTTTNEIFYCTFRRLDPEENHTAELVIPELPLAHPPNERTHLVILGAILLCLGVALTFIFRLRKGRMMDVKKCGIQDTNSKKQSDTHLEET
T4 sequence (G7PSE7 entry or part of it limits assumed): as the sequence (Q9NZQ7 19-238) above, with A33T, A34S, S62N, R68Q, Q82R, F173L, T185A, T192I, H215L counted along it
T1 sequence (Q9EP73 19-290): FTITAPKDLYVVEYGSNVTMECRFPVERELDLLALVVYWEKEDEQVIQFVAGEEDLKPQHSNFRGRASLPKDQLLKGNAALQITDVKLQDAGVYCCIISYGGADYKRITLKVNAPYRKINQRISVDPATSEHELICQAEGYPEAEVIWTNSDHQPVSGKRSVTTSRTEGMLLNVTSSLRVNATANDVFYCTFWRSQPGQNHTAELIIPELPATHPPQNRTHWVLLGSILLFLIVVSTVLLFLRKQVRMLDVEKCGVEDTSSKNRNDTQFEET
T3 sequence (Q9EP73 19-239 limits assumed): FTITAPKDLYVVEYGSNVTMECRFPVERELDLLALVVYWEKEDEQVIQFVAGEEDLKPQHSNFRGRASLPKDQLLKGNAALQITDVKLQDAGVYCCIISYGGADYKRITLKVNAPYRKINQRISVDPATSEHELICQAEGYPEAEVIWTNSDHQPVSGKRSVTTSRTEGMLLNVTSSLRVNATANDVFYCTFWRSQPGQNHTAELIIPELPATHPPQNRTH
T9 sequence (G7PSE7 entry or part of it limits assumed): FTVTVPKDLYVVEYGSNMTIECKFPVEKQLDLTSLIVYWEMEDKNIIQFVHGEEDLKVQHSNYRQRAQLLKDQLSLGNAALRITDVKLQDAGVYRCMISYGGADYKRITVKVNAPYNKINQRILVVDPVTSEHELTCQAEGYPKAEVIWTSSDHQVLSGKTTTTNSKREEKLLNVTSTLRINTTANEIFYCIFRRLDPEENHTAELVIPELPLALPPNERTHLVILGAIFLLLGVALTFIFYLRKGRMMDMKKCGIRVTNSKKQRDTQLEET
Chain of Human FcRn (P55899 24-297 limits assumed, chain 1 of 2): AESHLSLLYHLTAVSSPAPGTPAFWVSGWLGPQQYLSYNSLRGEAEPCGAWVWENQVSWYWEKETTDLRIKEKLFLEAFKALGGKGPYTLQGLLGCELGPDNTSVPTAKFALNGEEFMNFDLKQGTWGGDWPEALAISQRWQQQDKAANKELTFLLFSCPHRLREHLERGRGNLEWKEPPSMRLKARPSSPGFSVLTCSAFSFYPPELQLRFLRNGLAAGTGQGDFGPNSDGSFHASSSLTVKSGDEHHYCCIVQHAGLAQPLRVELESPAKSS
Chain of Human FcRn (P61769 21-119 limits assumed, chain 2 of 2): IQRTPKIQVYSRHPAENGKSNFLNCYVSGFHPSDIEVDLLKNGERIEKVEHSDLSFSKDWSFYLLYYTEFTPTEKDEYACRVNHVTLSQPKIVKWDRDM

B1: WT1122-U14T1.G15-1.uIgG1 (antibody)
heavy: not shown
light: SYELTQPPSVSVSPGQTASITCSGSELPKRYAYWYQQKPGQSIVRVIYKDSERPSGISERFSGSSSGNTATLTISGTQAMDEADYYCSSTYGDRKLPIFGGGTKLTVLGQPKAAPSVTLFPPSSEELQANKATLVCLISDFYPGAVTVAWKADSSPVKAGVETTTPSKQSNNKYAASSYLSLTPEQWKSHKSYSCQVTHEGSTVEKTVAPTECS
Binder B1 has an EC50 [1] of 1.2 nM, an EC50 (Human TGF-β3 [2]) of 0.8 nM and a Kd [3] of 1080 nM. It also gave a Kd [4] of 0.446 nM, a koff [4] of 0.00135 s⁻¹ and a kon [4] of 3.03e+06 M⁻¹ s⁻¹. It also gave a Kd [5] of 0.695 nM, a koff [5] of 0.00168 s⁻¹ and a kon [5] of 2.41e+06 M⁻¹ s⁻¹. For the same binder, the EC50 (Human TGF-β2 [6]) was 0.07 nM, the EC50 [7] was 0.7 nM and the “EC50 (read off the curve)” value (Human TGF-β3 [8]) was ~0.8 nM. The “TGF-β1 blockade IC50, SBE luciferase reporter gene assay (RGA)” value (Human TGF-β1 [9]) was 1.2 nM, the “hPD-1/PD-L1 signaling blockade IC50, NFAT luciferase reporter gene assay (RGA)” value [10] was 0.31 nM and the EC50 [11] was 1.08 nM. The Kd (Human TGF-β2 [12]) was 0.369 nM, the koff (Human TGF-β2 [12]) was 0.0149 s⁻¹ and the kon (Human TGF-β2 [12]) was 4.02e+07 M⁻¹ s⁻¹. For the same binder, the IC50 [13] was 0.04 nM, the “EC50 (read off the curve)” value (Human TGF-β1 [14]) was ~0.4 nM and the “EC50 (read off the curve)” value (Human TGF-β1 [15]) was ~0.5 nM. It also gave a Kd (Human TGF-β3 [16]) of 0.00162 nM, a koff (Human TGF-β3 [16]) of 9.35e-05 s⁻¹ and a kon (Human TGF-β3 [16]) of 5.78e+07 M⁻¹ s⁻¹. The Kd (Human TGF-β1 [17]) was 0.00165 nM, the koff (Human TGF-β1 [17]) was 0.000206 s⁻¹ and the kon (Human TGF-β1 [17]) was 1.25e+08 M⁻¹ s⁻¹. The EC50 (Human TGF-β1 [18]) was 0.5 nM, the “EC50 (read off the curve)” value [19] was ~0.2 nM and the Kd (Human FcRn) was 2570 nM.
